In publication PMC2886590 (Journal of molecular biology, 2010):
Where no end group is shown, it is not given here.

Target: MLL PHD3 finger (residues 1565-1627), GST cleaved (human, UniProt Q03164 1565-1627)
Experiment: other fluorescence titration

MLL PHD3 finger (residues 1565-1627), GST cleaved, sequence (Q03164 1565-1627): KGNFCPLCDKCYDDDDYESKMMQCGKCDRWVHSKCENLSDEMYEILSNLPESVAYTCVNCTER

Binder | fold lower affinity than for H3K4me3 [fold]
ARTK(Me)QTARKSTG [H3K4me1 peptide (12-mer histone tail peptide)] | 53
ARTK(Me2)QTARKSTG [H3K4me2 peptide (12-mer histone tail peptide)] | 8
